The target of assay [1] is HIV-1 NefSF2 wild type, full length (1-210), C210A (HIV-1 SF2) (UniProt P03407). The experiment in a line: ITC; Nef (40 to 50 µM) in the cell, GST-fused inhibitor protein (400 to 500 µM) in the syringe; 10 mM Tris/HCl pH 8.0, 100 mM NaCl; 15 °C.
Assay [2] has as its target HIV-1 NefSF2 mutant (P76A, P79A, R81A), C210A (HIV-1 SF2) (UniProt P03407). Put plainly: ITC; Nef (40 to 50 µM) in the cell, inhibitor protein (400 to 500 µM) in the syringe; 10 mM Tris/HCl pH 8.0, 100 mM NaCl; 25 °C.
Assay [3] concerns the target HIV-1 NefSF2 wild type, full length (1-210), C210A (HIV-1 SF2) (UniProt P03407). The experiment in a line: ITC.
The target in assay [4] is fluorescence-labelled NI3-3 (human) (UniProt P01730). The experiment in a line: other fluorescence titration.
Assay [5] addresses GST-NI3-9, Hck-SH3 (VSWSPD) - polyGly linker - CD4 cytoplasmic tail (human) (UniProt P08631). Put plainly: SPR; GST-NI3-9 held on a CM5 chip via an anti-GST antibody; hexa-histidine tagged Nef 400-1000 nM flowed at 5 µl/min; 10 mM HEPES pH 8.0, 150 mM NaCl, 0.005% IGEPAL; 25 °C.
Assay [6] has as its target HIV-1 NefSF2 (Δ1-44), C210A (HIV-1 SF2) (UniProt P03407). Put plainly: ITC.
For assay [7], the target named is HIV-1 NefSF2 (Δ1-27), C210A (HIV-1 SF2) (UniProt P03407). The experiment in a line: ITC.
Assay [8] addresses HIV-1 NefSF2 (Δ1-58), C210A (HIV-1 SF2) (UniProt P03407). Put plainly: ITC.

Turning to “GST-NI3-9, Hck-SH3 (VSWSPD) - polyGly linker - CD4 cytoplasmic tail (from UniProt P08631-1;P01730) (designed binder)”, in assay [1], the Kd is 0.026 µM, the dH was -11.4 kcal/mol and the stoichiometry N was found to be 0.97. Also, in assay [2], the Kd worked out at 1.17 µM, the dH is -4.1 kcal/mol and the stoichiometry N was found to be 0.85.
Consider “GST-NI3-8, CD4 cytoplasmic tail shortened to 23 residues fused N-terminally to Hck-SH3 (VSWSPD) (from UniProt P01730 419-458; P08631-1 78-138) (designed binder)”, for which, in assay [3], the Kd worked out at 0.107 µM, the dH is -8.2 kcal/mol and the stoichiometry N worked out at 0.93.
“HIV-1 NefSF2 wild type, full length (1-210), C210A (from UniProt P03407) (natural protein)” returned a Kd in assay [4] of 0.037 µM.
With “GST-NI3-3, CD4 cytoplasmic tail (CQC to SQS) fused to Hck-SH3 (VSWSPD) (from UniProt P01730 419-458; P08631-1 78-138) (designed binder)”, in assay [3], the Kd amounted to 0.088 µM, the dH was -8.64 kcal/mol and the stoichiometry N was found to be 1.12.
In assay [5], “HIV-1 NefSF2 (Δ1-44), C210A (from UniProt P03407 45-210) (domain or fragment)” had a Kd of 0.028 µM.
Consider “GST-NI3-5, wild type CD4 sequence attached with a glycine-serine-rich linker of 12 residues to Hck-SH3 (VSWSPD) (from UniProt P01730 419-458; P08631-1 78-138) (designed binder)”, for which, in assay [3], the Kd came out at 0.064 µM, the dH is -8.22 kcal/mol and the stoichiometry N was 1.06.
As to “GST-NI3-13, Hck-SH3 (VSWSPD) - linker - CD4 cytoplasmic tail truncated before the cysteines (from UniProt P08631-1 79-138; P01730 419-458) (designed binder)”, the Kd in assay [3] is 0.041 µM; in assay [6], 0.096 µM; in assay [7] it was 0.051 µM; in assay [8], 0.149 µM. Moreover, the dH in assay [3] is -7.04 kcal/mol; in assay [6], -16.1 kcal/mol; in assay [7], -12.2 kcal/mol; in assay [8] it was -13.8 kcal/mol. Also, the stoichiometry N was 0.98 in assay [3], 1.06 in assay [6], 1 in assay [7] and 0.98 in assay [8].
On to “GST-NI3-4, CD4 cytoplasmic tail (dileucine LL to AA) fused to Hck-SH3 (VSWSPD) (from UniProt P01730 419-458; P08631-1 78-138) (designed binder)”, for which, in assay [3], the Kd came to 0.544 µM, the dH is -8.55 kcal/mol and the stoichiometry N was found to be 0.97.
In assay [3], “GST-NI3-10, Hck-SH3 (VSWSPD) - linker - CD4 cytoplasmic tail with the two cysteines mutated (from UniProt P08631-1 78-138; P01730 419-458) (designed binder)” registered a Kd of 0.027 µM, a dH of -11.5 kcal/mol and a stoichiometry N of 1.03.
The matching figures for “GST-NI3-1, CD4 cytoplasmic tail (37 residues) - five residue linker - Hck-SH3 (VSWSPD) (from UniProt P01730 419-458; P08631-1 78-138) (designed binder)”: 0.084 µM, -8.51 kcal/mol and 1.09.

Source of the values: paper PMC3098852.
